Source: the supplement of paper PMC7125110
± gives the standard error. For some assays here: Fewer inactive variants are shown than the library holds.

B1: glmS ribozyme (parent)
chain: AUAAAAGCGCCAGAACUACAGAAAUGUAGUUGACGAGGAGGAGGUUUAUCGAAUUUUCGGCGGAUGCCUCCAAA

Key:
Details in all cases: with glucosamine-6-phosphate
glucosamine-6-phosphate [1] = variants of: B1; assay: kcat; higher = faster cleavage; RNA array
How it was run: (§1)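 Using a hybridised Cy3 probe at 37 °C, barcoded ribozyme variants transcribed in situ by E. coli RNA polymerase on sequenced MiSeq chips were monitored across tiles imaged over ~14 h. The flow contained glucosamine-6-phosphate from 40 μM to 10 mM in HEPES/KCl/Mg(OAc)2 buffer. Signals were normalised to baseline and to non-cleaving reference variants before per-tile medians were fit to one- or two-exponential decays to yield kobs. Weighted Michaelis–Menten fits across concentrations gave kcat and KM.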

glucosamine-6-phosphate [2] = variants of: B1; assay: KM; higher = weaker cofactor use; RNA array
How it was run: as §1

glucosamine-6-phosphate [3] = variants of: B1; assay: self-cleavage kobs at 640 uM GlcN6P; higher = faster cleavage; RNA array
How it was run: as §1

glucosamine-6-phosphate [4] = variants of: B1; assay: self-cleavage kobs at 2500 uM GlcN6P; higher = faster cleavage; RNA array
How it was run: as §1

glucosamine-6-phosphate [5] = variants of: B1; assay: self-cleavage kobs at 10000 uM GlcN6P; higher = faster cleavage; RNA array
How it was run: as §1

glucosamine-6-phosphate [6] = variants of: B1; assay: self-cleavage kobs at 40 uM GlcN6P; higher = faster cleavage; RNA array
How it was run: as §1

glucosamine-6-phosphate [7] = variants of: B1; assay: self-cleavage kobs at 160 uM GlcN6P; higher = faster cleavage; RNA array
How it was run: as §1

Variant	kcat (glucosamine-6-phosphate [1])	KM (glucosamine-6-phosphate [2])	self-cleavage kobs at 640 uM GlcN6P (glucosamine-6-phosphate [3])	self-cleavage kobs at 2500 uM GlcN6P (glucosamine-6-phosphate [4])	self-cleavage kobs at 10000 uM GlcN6P (glucosamine-6-phosphate [5])	self-cleavage kobs at 40 uM GlcN6P (glucosamine-6-phosphate [6])	self-cleavage kobs at 160 uM GlcN6P (glucosamine-6-phosphate [7])
G32A C68A	1.56e-05 ± 4.4e-06 s⁻¹						
G35A C50G	0.000781 ± 0.00018 s⁻¹	1190 ± 540 µM	0.000273 ± 0.00012 s⁻¹	0.000615 ± 0.00015 s⁻¹			
A36G U55C	1.01e-05 ± 4e-06 s⁻¹						
A36G C68G	1.27e-05 ± 2.3e-06 s⁻¹						
C34G C67U	< 1e-05 s⁻¹		< 1e-05 s⁻¹				
G32U C67A	0.000412 ± 4.2e-05 s⁻¹	4200 ± 780 µM	5.83e-05 ± 6.7e-06 s⁻¹	0.00014 ± 1.6e-05 s⁻¹	0.000296 ± 2.2e-05 s⁻¹		
A33C G38U	< 1e-05 s⁻¹		< 1e-05 s⁻¹		< 1e-05 s⁻¹	< 1e-05 s⁻¹	< 1e-05 s⁻¹
C34U G43A	< 1e-05 s⁻¹					< 1e-05 s⁻¹	< 1e-05 s⁻¹
C34G G60U	< 1e-05 s⁻¹			< 1e-05 s⁻¹		< 1e-05 s⁻¹	
G32A A53G	0.00285 ± 0.00095 s⁻¹	1980 ± 950 µM	0.00114 ± 0.0002 s⁻¹	0.00106 ± 0.00021 s⁻¹	0.00294 ± 0.00036 s⁻¹	5.52e-05 ± 9e-06 s⁻¹	0.000222 ± 3.2e-05 s⁻¹
G35C U65G	< 1e-05 s⁻¹	1500 ± 360 µM		< 1e-05 s⁻¹		< 1e-05 s⁻¹	< 1e-05 s⁻¹
G37A G38C C67U C68G C71U	2.2e-05 ± 4e-06 s⁻¹						
G37C C50A C58A U69A	5.12e-05 ± 2.4e-05 s⁻¹		8.62e-05 ± 3.4e-05 s⁻¹				
A33U U49G	1.42e-05 ± 5.2e-07 s⁻¹	44.7 ± 12 µM	< 1e-05 s⁻¹				< 1e-05 s⁻¹
G32A C58A C68U	0.000878 ± 0.00034 s⁻¹		8.56e-05 ± 1.4e-05 s⁻¹	0.000172 ± 7.4e-05 s⁻¹	0.000572 ± 0.00012 s⁻¹		
G32U G51U U55A	1.45e-05 ± 2.5e-06 s⁻¹						
A36U C71U	< 1e-05 s⁻¹		< 1e-05 s⁻¹				
G32U A36U	< 1e-05 s⁻¹				< 1e-05 s⁻¹	< 1e-05 s⁻¹	< 1e-05 s⁻¹
G32A U56A	0.000939 ± 0.0002 s⁻¹	5360 ± 1600 µM	9.47e-05 ± 1.5e-05 s⁻¹	0.000295 ± 4.3e-05 s⁻¹	0.000619 ± 9.9e-05 s⁻¹		4.57e-05 ± 1.5e-05 s⁻¹
G32A U56C	0.000235 ± 2.8e-05 s⁻¹	2950 ± 670 µM	4.72e-05 ± 1e-05 s⁻¹	9.95e-05 ± 1.6e-05 s⁻¹	0.000191 ± 3.1e-05 s⁻¹		
U31G U46A	0.000771 ± 0.00021 s⁻¹		0.000258 ± 6.7e-05 s⁻¹	0.000954 ± 0.00016 s⁻¹	0.000614 ± 0.0001 s⁻¹		0.000124 ± 3.6e-05 s⁻¹
